Results from US12384811B2, “Sialidase-resistant saccharide and method of making and using the same” (Academia Sinica, priority 2019, dated 2025).

Tests used:
[1] = target: T1, FcγRIIIa (Homo sapiens, UniProt P08637); test: Surface plasmon resonance (SPR) analysis of binding avidity of glycoengineered Rituximab IgG1; conditions: for improvement in binding avidity to FcγRIIIa compared to the commercial sample of rituximab / Rmax / Kd / ka / kd: SPR; for Rmax / Kd / ka / kd: BIACORE T200, 25° C.; for Kd / ka / kd: single cycle kinetic, 1:1 Langmuir model; for Fold: binding avidity relative to commercial Rituximab
T1 construct: made in house; host or cells: HEK-293
T1 sequence (P08637 17-254): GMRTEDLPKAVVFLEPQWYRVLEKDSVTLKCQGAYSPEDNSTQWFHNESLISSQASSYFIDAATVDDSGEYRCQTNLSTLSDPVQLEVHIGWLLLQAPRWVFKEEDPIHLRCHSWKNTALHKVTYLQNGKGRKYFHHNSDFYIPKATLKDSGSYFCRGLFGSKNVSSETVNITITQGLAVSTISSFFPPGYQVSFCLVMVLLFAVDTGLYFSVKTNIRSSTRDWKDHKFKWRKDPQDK
Procedure: All the SPR experiments were performed with the single cycle kinetic method by BIACORE T200 at 25° C. using HBS-EP (10 mM HEPES pH7.4, 0.15M NaCl, 3mMEDTA, 0.005% surfactant P20) as running buffer. FcγRIIIa was transfected into HEK-293 cells to express the complex-type glycosylated recombinant protein as analyte. For the analysis of Rituximabs binding to FcγRIIIa receptor, antihuman Fab antibodies in human Fab capture kit (GE Healthcare) were immobilized onto both the reference and active channels of CM5 sensor chip, and then Rituximabs were captured on the active channel for interacting with the serial dilutions of FcγRIIIa analyte (2.5, 5, 10, 20, 40 nM for 2,6-FluoSCT and 2,6-SCT; 8, 24, 72, 216, 648 nM for the commercial Rituximabs) at 30 μl/min for association of 240 seconds followed by dissociation time of 420 seconds. Rituximab data were processed with double referencing for background subtraction. Data of Rituximabs was fitted to 1:1 Langmuir binding model in BiaEvaluation software (GE Healthcare) to obtain the kinetic/affinity constants (Table 4). Analyzed antibodies were captured by the Human Fab capture kit and detected with the single cycle kinetic method.

[2] = target: T2, sialidase from Vibrio cholerae (Vibrio cholerae serotype O1, UniProt P0C6E9); format: biochemical; conditions: pH 5.5
T2 construct: purchased Sigma Aldrich 11080725001
T2 sequence (P0C6E9 25-781): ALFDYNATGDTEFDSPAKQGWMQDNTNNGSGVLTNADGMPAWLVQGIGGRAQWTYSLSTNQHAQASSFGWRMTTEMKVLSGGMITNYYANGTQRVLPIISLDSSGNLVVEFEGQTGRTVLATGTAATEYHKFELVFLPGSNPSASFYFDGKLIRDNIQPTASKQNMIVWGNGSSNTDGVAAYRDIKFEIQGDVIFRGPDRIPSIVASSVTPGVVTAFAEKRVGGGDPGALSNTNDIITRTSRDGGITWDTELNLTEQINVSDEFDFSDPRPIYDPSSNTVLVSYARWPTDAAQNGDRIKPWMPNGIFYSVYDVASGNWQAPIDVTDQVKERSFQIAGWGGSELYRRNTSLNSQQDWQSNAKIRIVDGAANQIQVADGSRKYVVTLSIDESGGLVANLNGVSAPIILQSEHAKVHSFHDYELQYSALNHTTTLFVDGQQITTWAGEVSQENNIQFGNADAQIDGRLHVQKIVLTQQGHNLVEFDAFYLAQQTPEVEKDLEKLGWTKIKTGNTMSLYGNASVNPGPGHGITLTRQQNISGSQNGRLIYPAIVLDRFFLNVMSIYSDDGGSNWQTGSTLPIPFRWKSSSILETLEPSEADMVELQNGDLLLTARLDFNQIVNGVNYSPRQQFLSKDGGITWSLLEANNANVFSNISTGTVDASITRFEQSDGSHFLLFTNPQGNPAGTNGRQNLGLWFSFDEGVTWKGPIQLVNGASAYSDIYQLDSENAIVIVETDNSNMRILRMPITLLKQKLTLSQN

[3] = test system: sialidase from Clostridium perfringens; format: biochemical; conditions: C. perfringens sialidase, substrate Neu5Ac-α2,6-GalβpNP 0.6 mM, inhibitor 0-20 mM (FIG. 1B)
[4] = target: T2, sialidase from Vibrio cholerae; format: biochemical
[5] = test system: sialidase from Clostridium perfringens; format: biochemical; conditions: C. perfringens sialidase, 37° C., pH 5.0, substrate 0-20 mM, β-galactosidase, A405 nm (FIG. 1A)

| Molecule | improvement in binding avidity to FcγRIIIa compared to the commercial sample of rituximab [1] [fold] | Rmax [1] [RU] | Kd [1] [nM] | ka [1] [M⁻¹ s⁻¹] | kd [1] [s⁻¹] | Fold [1] | hydrolytic activity of the sialidase toward the substrate [2] | inhibition of the hydrolysis of 1 [3] | inhibition of the hydrolysis of 1 [4] | hydrolytic activity of the sialidase toward the substrate [5] |
| --- | --- | --- | --- | --- | --- | --- | --- | --- | --- | --- |
| 2,6-F^axSCT: homogeneous rituximab IgG1 glycoform without core fucose bearing the 3F^ax-Neu5Ac-terminated α2,6-sialylated biantennary N-glycan | 37.4 | 71.28 | 8.18 | 244000 | 0.001996 | 37.4-fold |  |  |  |  |
| 2,6-SCT: parent nonfluorinated homogeneous rituximab glycoform (G2S2), α2,6-sialylated biantennary N-glycan without core fucose | 39.9 | 60.64 | 7.67 | 268000 | 0.002059 | 39.9-fold |  |  |  |  |
| CC(=O)N[C@H]1[C@H]([C@H](O)[C@H](O)CO)OC(OC[C@H]2O[C@@H](Oc3ccc([N+](=O)[O-])cc3)[C@H](O)[C@@H](O)[C@H]2O)(C(=O)O)C[C@@H]1O (stereo partly drawn) [Compound 1, p-Nitrophenyl [5-acetamido-5-deoxy-D-glycero-α-D-galacto-non-2-ulopyranosylonate]-(2→6)-β-D-galactopyranoside] |  |  |  |  |  |  | expected hydrolytic activity |  |  |  |
| CC(=O)N[C@H]1[C@H]([C@H](O)[C@H](O)CO)OC(C(=O)O)=C[C@@H]1O [DANA, 2-deoxy-2,3-didehydro-N-acetylneuraminic acid] |  |  |  |  |  |  |  | inhibit the hydrolysis of 1 | inhibit the hydrolysis of 1 |  |
| Rituximab: commercial sample of rituximab (Rituxan, Roche; major glycoforms: G1F1, G0F1, G2F1) |  | 32.33 | 306 | 231000 | 0.07054 | 1-fold |  |  |  |  |
| p-Nitrophenyl [methyl 5-acetamido-3,5-dideoxy-3-fluoro-D-erythro-α-L-manno-non-2-ulopyranosonate]-(2→6)-β-D-galactopyranoside [Compound 2] |  |  |  |  |  |  | inactive | did not significantly inhibit | did not significantly inhibit | inactive |
